Laboratory results from the RNAGym collection of RNA variant scans (doi:10.1021/acssynbio.7b00057).

B1: Pistol ribozyme (parent)
chain: GGGUCGUUGUUCCAUAAUCGCGUGGAUAUGGCACGCAAGUUUCUACCGGGCACCGUAAAUGUCCGACUGGAGCCGUUCGGGCGGCUAUAAACAGACCUCAGGCCCGAAGCGUGGCGGCACCUGCCGCCGGUGGUAAAAAAGAUCGGAAGAGCACACGUCU

Variants of: B1
Assay: aptazyme ON/OFF ratio, guanine; higher = stronger switching; co-transcriptional cleavage with and without guanine

Variant | aptazyme ON/OFF ratio
U8C G9C U10G U11C C12G C13G | 1.18
U7C U8C G9A U10C U11C C12A | 1.25
U8A G9A U10A U11G C13G | 1.08
U7C U8A G9A U10C U11G C12A | 1.05
U7G U8C G9C U10C C12U C13U | 1.04
U7G U8A U10G U11C | 2.11
U7A U8A G9A U10G C12U C13G | 1.17
U7A U8C G9A C12U C13U | 1.1
U7A U10A U11G C12A C13G | 1.39
U8G G9U U11G C12U C13G | 1.1
U11G C12A | 1.11
U8A G9C U10G U11C C12A C13G | 1.12
U8A G9A U10C | 2.54
U8G G9A U10C U11G C12G C13G | 1.42
U7G U8C G9C U10C U11G | 1.05
G9A U10C U11G C12U | 1.52
U7A U8G G9U U10A U11A C12A C13A | 1.24
U7C U8A U10G U11G C12G | 1.18
U7G U8C G9C U10C U11G C12A C13G | 1.09
U8G G9A U10C U11G C12U C13G | 1.18
U7A U8C U10C U11A C12G C13G | 1.22
U7C U8G G9A U10C U11G | 1.23
U7A U8G G9C U10G U11G C12G C13A | 1.32
U7C G9U U10A U11A | 1.42

Variant | aptazyme ON/OFF ratio
U7G G9A U10G | 1.19
U7C U8G G9C U10A U11C C12U C13A | 1.11
U7A G9C U10C U11G | 1.02
U7A U8C U11C C13G | 1.13
U8G G9A U10G U11G C12G C13U | 1.37
U8C G9U C12G C13U | 1.25
U7A U10G U11G C12G | 1.45
U7C U8G G9C C12G | 1.28
U8C G9C U11C C12A C13A | 1.03
U7A U8C G9A U10A | 1.37
U7C U8G U10C U11A C12A C13U | 1.33
U8G G9A U10A U11G C12G C13G | 1.05
U7G G9A C12U C13U | 1.18
U7G U8G G9C U10G U11C C13U | 1.05
U7A U8G G9C C12A C13U | 1.29
U7C G9U U10G U11A C12G C13U | 1.12
U7G U8G G9C U10C U11A C12U C13A | 1.36
G9U U11G C12G C13U | 1.21
U7A U10A U11C C12A C13G | 1.03
U8G U10C U11A C12G C13U | 1.27
U7A U8C G9U U10C U11G C12G C13G | 1.11
U8G G9C U10A U11G C12A C13A | 1.07
U7C U8A G9A U10G U11A C13A | 1.04
U8C G9U U10C U11C C12A | 1.03

Variant | aptazyme ON/OFF ratio
U7C U8C U11C C12G C13A | 1.4
U8A G9A U10C U11G C12U C13A | 1.17
U7A U8A U10C U11A C13G | 1.09
U7A U8A G9U U10G C12A C13U | 1.19
U7C U8A G9A U10A U11C C12A | 1.16
U7C U8A G9C U10A U11C C12G | 1.2
U7A U8G U10C U11G C12G C13A | 1.19
U7A U11G C13A | 1.03
U7G G9C U11G C13G | 1.31
U8C G9A U10G C12A | 1.16
U8C G9C U10G U11C C12A C13A | 1.19
U7C G9C U10G U11C C13A | 1.1
U7G U8G G9C U10C U11A C12G C13G | 1.24
U7C U8C G9C U11C C12A C13G | 1.04
U7C U8C G9A U11A C12U | 1.06
U7C U8A G9A U11C C12G | 1.16
U7G G9A U10C U11C C12A C13U | 1.12
U7C U8A G9C U11A C12G | 1.12
U7A U8A G9C U11G C12A C13A | 1.17
U7A U8G G9U U10A U11C C12U C13U | 1.2
U7A U8C G9U U10C U11C C13G | 1.02
U7A G9U U11G C13G | 1.04
U7C U8G U10C U11G C12U | 1.97
U7C U8C G9U U10G C12G C13A | 1.09

Variant | aptazyme ON/OFF ratio
U7G U8G U10G U11C C12U C13A | 1.12
U7G U8A U10A U11C C13G | 1.06
U7G U10C U11G C13U | 1.14
U7G U8C G9A U11C C12A C13U | 1.5
U8A G9U U10G U11A C12G C13A | 1.27
G9U C13G | 1.09
U8A U10C U11A C12G | 1.19
U7G U8G G9C U11C C12A C13G | 1.13
U7C U8A U10G | 1.37
U7C U8C G9C U10C U11C C12G C13A | 1.28
U7G U8G U10C U11A C13U | 1.47
U7A G9C U10C U11G C12G C13U | 1.05
U8C U10C U11C C13G | 1.19
U7A U8C G9U U10C U11G C12A C13G | 1.11
U8A U10C U11A C12A | 1.13
U7G G9U U10A U11G C13A | 1.13
U7C U8C U10G U11G C12G | 1.2
U10G U11G C12U C13U | 1.26
U7G G9U U10C U11G C12G C13G | 1.12
G9C U11A C12A C13U | 1.3
U8C U10C U11A C12A C13U | 1.25
U7C U8C G9U U10G C12G C13U | 1.09
U8C G9C U10G U11C C13A | 1.3
U7A U8C G9C U10C U11C C12U C13U | 0.988

Variant | aptazyme ON/OFF ratio
U7A U8C G9A U10G U11G C13A | 1.25
G9C U10G U11A C12U C13A | 1.09
U7C U8A G9A U10A C12A C13U | 1.26
U7A U8G G9A U10G C12U C13G | 1.36
G9A U10G U11A | 1.06
U7G U8G G9A U10C U11A C12U C13G | 1.08
U8G G9A U11A C12G C13G | 1.17
U8A G9C U11C C12U C13G | 1.04
U7C U8A G9U U10A U11G C12G C13A | 1.15
U8A G9C U10A U11C C12A C13A | 1.22
U7G U8A G9A U10A U11C C12A C13G | 1.12
U7C U8C G9A U10G U11G C12G C13U | 1.11
U7C U8A G9U U10C U11C C12U C13U | 1.02
U8G G9C U10G U11A C12A C13A | 1.12
U7C U8A G9U U11G C12A C13U | 1.2
U7A U8G G9C U10C U11C C12G C13U | 1.07
U7G U8A G9A C13A | 1.25
U7A G9C U10C C12U C13A | 1.04
U7C U8C U11G C12G C13A | 1.1
U7C U8A U11C C12A | 1.35
G9A U10A U11A C12A | 1.66
U7G G9U U10C C12A C13A | 1.42
U7A U8C G9U U10C U11A C13G | 1.09
U7C U8C G9U U10C U11A C12U C13G | 1.14

Variant | aptazyme ON/OFF ratio
U7C U8C U10A U11C C12G | 1.26
U7A U8C G9A U11A | 1.25
U8A U11G C12A C13U | 1.2
U7C U8A G9U U11A C12A C13G | 1.18
U8A G9A U10C U11G C13G | 1.18
U7C U8C G9C U10G C12G C13A | 1.05
U7A U8A G9A U10A U11G C12A C13U | 1.24
U7C G9C U10G U11G C12U | 1.07
U7C G9A U10A C12G C13U | 1.21
U7G G9C U10G U11G C12G C13G | 1.06
U7C U8C G9U U11A C13U | 1.15
U7C U8A G9U U10C U11C C13U | 1.01
U7A U8A G9U U10C U11A C13A | 1.22
U7G G9C U10C U11A C13U | 1.25
U7C U8G G9A U11C C12U C13U | 1.09
U7G U8C G9A C12G C13A | 1.05
U8G G9A U10C U11C C13U | 1.03
U7C U8C U11C C13U | 1.3
U7G U8G U10G U11G C13A | 1.62
U7G U8C G9C U10A U11G C12A C13G | 1.12
U7G U8C U11C C12G C13A | 1.32
U7G U8C U10A C12G C13G | 1.15
U8A G9A U10A U11C C12U C13A | 1.14
U7C U8A G9U U10A C12A C13U | 1.22

Variant | aptazyme ON/OFF ratio
U7C U8G G9A U10C C12A | 1.18
U7G G9C U10A U11G C13A | 1.13
G9C U10A U11G C12A | 1.06
U8G G9C C12G C13A | 1.05
U7G U8G U10A U11C C12G C13G | 1.11
U7C G9U U10C U11A C12G C13A | 1.19
U7A U8C U11G C12A | 1.19
U7A U8G U10G U11A C13A | 1.4
U8A G9U U11C C12A C13G | 1.07
U7A U8A U11A C12G C13U | 1.16
U7A G9A U10G C12U | 1.41
U7A U8A G9A U10A C12G C13U | 1.28
U7G U8A G9C U10C U11G C12U C13A | 1.05
U7A U8C U10G U11G C12A C13U | 1.34
U8G G9U C12G C13U | 1.31
U8A G9U U10A U11A C12U C13G | 1.36
U7G U8C G9U U10C U11C C12A C13A | 1.52
U7G G9A U10G U11G C12U C13U | 1.1
G9A U10G U11C C12A C13A | 1.18
U7G U8G G9U U10C U11A C12U | 1.28
U7A G9C U10C U11G C12U C13A | 1.04
U7A U8A G9A U11G C12A C13U | 1.09
U7A U8G U10A C12U C13G | 1.25
